Ends that are not written are not given here.
Experiments:
[1] = biological target: T1, non-sense peptide PGGVPGGVFY; experiment: Competitive ELISA on coated Biotin-…
T1 construct: Control peptide in the specificity test
T1 peptide: PGGVPGGVFY
Description: (§1) Based on the collected antibodies the ELP-3 assay was developed as competitive ELISA assay. A 96-well streptavidin-coated microtiter plate (Roche, Basel, Switzerland) was coated with 100 ul biotinylated screening peptide (Biotin-[…] (SEQ ID NO: 5)) dissolved in assay buffer for 30 min at 20° C. with shaking. Plates were washed five times in washing buffer (20 mM TRIS, 50 mM NaCl, pH 7). Sample/standard/control (20 ul) was added and followed by addition of (100 ul) monoclonal antibody and incubated for 3 h at 4° C. with shaking. After incubation, plates were washed five times in washing buffer. A volume of 100 ul of secondary HRP labeled goat anti-mouse antibody was added followed by 1 h incubation at 20° C. with shaking. Plates were then washed and TMB was added and the plate was analyzed by a SpectraMax M reader (Molecular Devices, Ca, USA) at 450 nm with 650 nm as the reference. A standard curve was plotted using a 4-parametric mathematical fit model. Each ELISA plate included kit controls to monitor inter-assay variation. All samples were measured within the range of the assay. All samples below the level of lower limit of quantification (LLOQ) were assigned the value of LLOQ.
(§2) Supernatants from antibody producing hybridomas were screened for reactivity against standard peptide, elongated peptide, and truncated peptide in an indirect ELISA. The peptide Biotin-[…] […]

[2] = biological target: T2, Elongated peptide LPGGYGLPYTT (human); experiment: Competitive ELISA on coated Biotin-LPGGYGLPYT
T2 construct: Standard peptide extended by one threonine at the C-terminus; also called C-extended elongated version
T2 peptide: LPGGYGLPYTT
Description: as §1, §2

[3] = biological target: T3, Standard peptide LPGGYGLPYT (human); experiment: Indirect or competitive ELISA with the standard peptide as calibrator
T3 construct: Synthetic decapeptide with a free C-terminus; also called calibrator peptide; selection peptide
T3 peptide: LPGGYGLPYT-OH

[4] = biological target: T4, Proteinase 3 (PR3; EPC ML734) (UniProt P24158 28-248); experiment: ELP-3 competitive ELISA on in vitro cleavage samples
T4 construct: also called protease control
T4 sequence (looked up): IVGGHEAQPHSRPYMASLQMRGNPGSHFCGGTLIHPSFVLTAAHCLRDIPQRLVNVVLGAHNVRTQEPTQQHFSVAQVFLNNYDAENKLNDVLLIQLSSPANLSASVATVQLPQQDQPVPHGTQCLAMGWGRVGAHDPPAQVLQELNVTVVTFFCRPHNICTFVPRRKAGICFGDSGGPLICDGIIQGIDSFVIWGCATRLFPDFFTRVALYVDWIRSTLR

[5] = biological target: T5, Human neutrophil elastase (HNE) protein (Abcam, ab91099) (human, UniProt P08246 30-247, limits assumed); experiment: as above
T5 construct: also called protease control
T5 sequence (looked up): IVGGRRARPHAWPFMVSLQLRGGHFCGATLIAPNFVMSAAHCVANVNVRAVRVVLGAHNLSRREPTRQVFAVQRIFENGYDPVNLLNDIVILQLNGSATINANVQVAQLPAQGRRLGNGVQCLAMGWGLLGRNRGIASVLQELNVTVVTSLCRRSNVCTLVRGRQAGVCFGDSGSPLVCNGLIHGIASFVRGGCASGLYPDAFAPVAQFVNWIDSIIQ

[6] = biological target: T6, intact elastin (Sigma, E7152) (human, UniProt P15502 27-786, limits assumed); experiment: as above
T6 construct: Uncleaved elastin control of the in vitro cleavage experiment
T6 sequence (looked up): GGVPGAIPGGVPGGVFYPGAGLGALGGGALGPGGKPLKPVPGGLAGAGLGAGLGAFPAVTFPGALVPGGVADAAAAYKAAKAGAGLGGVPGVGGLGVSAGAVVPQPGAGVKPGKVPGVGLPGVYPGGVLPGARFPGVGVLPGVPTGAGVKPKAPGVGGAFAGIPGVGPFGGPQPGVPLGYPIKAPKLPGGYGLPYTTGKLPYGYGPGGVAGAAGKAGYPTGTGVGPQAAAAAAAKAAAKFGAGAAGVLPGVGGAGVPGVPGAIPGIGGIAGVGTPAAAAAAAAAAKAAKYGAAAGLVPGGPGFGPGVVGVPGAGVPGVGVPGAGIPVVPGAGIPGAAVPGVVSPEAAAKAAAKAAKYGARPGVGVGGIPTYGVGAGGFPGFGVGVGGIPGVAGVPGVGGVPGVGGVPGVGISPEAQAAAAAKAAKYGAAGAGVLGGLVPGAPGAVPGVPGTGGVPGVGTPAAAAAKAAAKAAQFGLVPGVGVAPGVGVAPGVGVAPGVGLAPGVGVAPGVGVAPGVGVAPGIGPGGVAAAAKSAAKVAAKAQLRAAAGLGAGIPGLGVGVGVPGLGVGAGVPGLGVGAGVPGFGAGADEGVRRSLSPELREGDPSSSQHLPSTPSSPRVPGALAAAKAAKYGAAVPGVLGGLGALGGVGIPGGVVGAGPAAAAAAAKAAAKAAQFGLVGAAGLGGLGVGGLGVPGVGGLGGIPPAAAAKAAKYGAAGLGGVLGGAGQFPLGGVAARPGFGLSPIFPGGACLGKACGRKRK

binding result [1]: no binding
binding result [2]: no binding
binding result [3]: binds
binding result [4]: no binding
binding result [5]: no binding
binding result [6]: no binding
B1: monoclonal antibody clone NBH116/6A10-E7-D12 (antibody, mouse IgG1, kappa, V domains shown)
VH: EVKLVESGGGLVQPGDSLRLSCATSGFTFTDYYMSWVRQPPGKALEWLGFIRNKANGYTTEYSASVKGRFTISRDNSQSILYLQMNTLRAEDSATYYCARDIITTPSWFGYWGQGTLVTVSA
VL: DIQMNQSPSSLSASLGDTITITCHASQNINVWLSWYQQKPGNIPKLLIYKASNLHTGVPSRFSGSGSGTGFTLTISSLQPEDIATYYCQQGQSYPLTFGAGTKLELKR
notes: also called ELP-3 antibody; the selected antibody

From patent publication US20240011997A1 (NORDIC BIOSCIENCE A S, published 2024)
